Experiments:
Assay in all cases: GST pull-down from transfected MCF-7 lysate, western blot
[1] = molecular target: T1, vimentin deletion mutant containing aa 97-466 of SEQ ID NO: 1 (human, UniProt P08670 97-464)
T1 construct: Tested in lysate of transfected MCF-7 cells; The forward oligo carries an ATG start codon before the fragment; not shown: C-terminal Myc and His tags of the pcDNA3.1/MycHis B vector
Description: (§1) Full length vimentin or its deletion mutant constructs were transfected into MCF-7 cells. After incubation cells were lysed and lysate was used in pull-down reaction using GST-tagged CD44-HABD proteins immobilised onto glutathione sepharose beads. After pull-down, beads were washed and bound proteins were eluted. Eluates were analysed on western blot. A, vimentin deletion mutants used in pull-down reactions. B, WB of pull-down reactions from vimentin and its deletion mutant transfected cell lysates.
(§2) CD44-3MUT binding of vimentin deletion mutants was tested using GST pull-down from cell lysates. MCF-7 cells were transfected with vimentin deletion-constructs on 15 cm cell culture plates using 20 µg DNA with polyethyleneimine (PEI; DNA and PEI were used in ratio 1:2). Transfected cells were incubated at 37° C. for 72 h. Thereafter, adherent cells were washed once with cold PBS and lysed in 2 ml of lysis buffer containing 50 mM Tris pH 8.0, 50 mM NaCl, 2% CHAPS and protease inhibitor cocktail (Roche). For removal of insoluble material the lysates were centrifuged 14000 rpm 30 min at 4° C. Resulting lysates were used in GST pull-down. For pull-down 10 µg GST, GST-HABD or GST-3MUT were immobilised onto glutathione sepharose 4 fast flow beads (GE Healthcare) in 0.5 ml of PBS. Cell lysates were precleared by incubating the lysates with GST-coupled glutathione beads for 2 h at 4° C. with continuous rotation. After preclearing, the lysates (0.6 vol per reaction) were incubated over-night at 4° C. with GST, GST-HABD or GST-3MUT proteins immobilised onto 25 µl glutathione sepharose beads. After pull-down reactions, beads were washed 4 times with 0.3 ml vol wash buffer containing 50 mM Tris pH 8.0, 150 mM NaCl and protease inhibitor cocktail. Bound proteins were eluted 3 times with 25 µl volume elution buffer 20 mM reduced glutathione, 50 mM Tris pH 8.0. Eluates were pooled and after SDS PAAG pull-down reactions were analysed by western blotting with anti-His specific pAb (H-15) (Santa Cruz Biotechnology) or anti-vimentin specific pAb (Genway).

[2] = molecular target: T2, vimentin deletion mutant containing aa 134-466 of SEQ ID NO: 1 (human, UniProt P08670 134-464)
T2 construct: Tested in lysate of transfected MCF-7 cells; not shown: EGFP and linker of the pEGFP-C3 vector
T2 sequence (P08670 other isoform, or with tags, fused parts or gaps mutant): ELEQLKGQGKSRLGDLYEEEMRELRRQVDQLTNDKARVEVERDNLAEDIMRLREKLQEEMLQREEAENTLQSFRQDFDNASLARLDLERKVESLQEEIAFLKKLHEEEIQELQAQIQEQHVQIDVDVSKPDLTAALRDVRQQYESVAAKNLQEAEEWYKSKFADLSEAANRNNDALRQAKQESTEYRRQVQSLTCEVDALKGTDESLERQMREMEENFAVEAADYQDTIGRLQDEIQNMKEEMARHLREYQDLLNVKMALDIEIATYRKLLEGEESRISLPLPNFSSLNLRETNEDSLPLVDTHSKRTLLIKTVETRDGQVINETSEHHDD
Description: as §1, §2

[3] = molecular target: T3, vimentin deletion mutant containing aa 407-466 of SEQ ID NO: 1 (human, UniProt P08670 407-464)
T3 construct: Tested in lysate of transfected MCF-7 cells; not shown: EGFP and linker of the pEGFP-C2 vector
T3 sequence (P08670 other isoform, or with tags, fused parts or gaps mutant): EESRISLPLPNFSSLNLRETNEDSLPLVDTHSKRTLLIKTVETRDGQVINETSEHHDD
Description: as §1, §2

Measured: binding result

T1 sequence (P08670 other isoform, or with tags, fused parts or gaps mutant): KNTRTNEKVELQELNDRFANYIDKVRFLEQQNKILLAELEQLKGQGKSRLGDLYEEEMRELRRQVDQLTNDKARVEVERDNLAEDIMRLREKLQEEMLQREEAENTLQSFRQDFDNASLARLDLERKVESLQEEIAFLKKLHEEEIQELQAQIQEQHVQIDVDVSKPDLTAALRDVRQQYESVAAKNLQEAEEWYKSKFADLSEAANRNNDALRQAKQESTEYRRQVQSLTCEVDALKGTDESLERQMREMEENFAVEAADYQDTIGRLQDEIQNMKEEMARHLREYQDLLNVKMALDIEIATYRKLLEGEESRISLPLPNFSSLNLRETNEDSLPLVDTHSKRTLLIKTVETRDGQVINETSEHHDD

B1: GST tagged CD44-HABD R41AR78SY79S mutant (CD44-3MUT) (other, not shown: a dimerising Fc or GST; small tags and cut ends)
chain: QIDLNMTCRFAGVFHVEKNGAYSISRTEAADLCKAFNSTLPTMAQMEKALSIGFETCSSGFIEGHVVIPRIHPNSICAANNTGVYILTSNTSQYDTYCFNASAPPEEDCTSV
notes: Immobilised on glutathione sepharose beads in the pull-downs; also called GST-3MUT; GST-SB101
no binding: all assays above

Source: patent US8524666 (IBCC, dated 2013)
